Measured values published in US20200181263A1 (NUMAB THERAPEUTICS, published 2020).

How the values were obtained:
[1] = target: T1, human IL23R IL12Rbeta 1 heterodimer on CHO-K1 cells (human, UniProt Q5VWK5 24-629; P42701 24-662); assay: cell-based or functional assay
[2] = target: T2, human CD3 gamma-epsilon single-chain (human, UniProt P09693 23-103; P07766 23-118); assay: SPR, target immobilised by amine coupling, binder as analyte
T2 construct: Recombinant protein immobilised on the SPR chip

human serum albumin = target: T3, human serum albumin (human, UniProt P02768 25-609); assay: as above
T3 construct: also called HSA

cyno CD3 = target: T4, cyno CD3 (cyno, UniProt Q95LI5 22-117); assay: as above
T4 sequence (looked up): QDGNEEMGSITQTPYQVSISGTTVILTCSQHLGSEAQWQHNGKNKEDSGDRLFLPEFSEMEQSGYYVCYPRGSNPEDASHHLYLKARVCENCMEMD

human IL-23 receptor ECD = target: T5, human IL-23 receptor ECD (human, UniProt Q5VWK5 24-355); assay: as above
T5 construct: extracellular domain
T5 sequence (looked up): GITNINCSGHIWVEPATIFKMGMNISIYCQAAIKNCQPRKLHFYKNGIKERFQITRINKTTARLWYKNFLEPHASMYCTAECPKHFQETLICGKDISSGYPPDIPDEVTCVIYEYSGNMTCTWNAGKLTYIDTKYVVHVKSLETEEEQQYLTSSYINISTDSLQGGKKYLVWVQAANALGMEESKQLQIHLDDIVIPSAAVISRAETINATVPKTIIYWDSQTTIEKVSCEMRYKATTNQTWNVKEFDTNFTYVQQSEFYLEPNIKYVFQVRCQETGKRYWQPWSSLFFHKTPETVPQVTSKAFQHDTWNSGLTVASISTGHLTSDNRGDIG

[3] = target: T1, human IL23R IL12Rbeta 1 heterodimer on …; assay: cell-based or functional assay; remark: listed apart in the source

B1: PRO746 (MATCH) (other)
chain 1: DIQMTQSPSSLSASVGDRVTITCQASENIYSFLAWYQQKPGKAPKLLIYSASKLAAGVPSRFSGSGSGTDFTLTISSLQPEDFATYYCQQTNRYSNPDIYNVFGTGTKVTVLGGGGGSGGGGSGGGGSGGGGSEVQLVESGGGLVQPGGSLRLSCAASGIDFNSNYYMCWVRQAPGKGLEWIGCIYVGSHVNTYYANWAKGRFTISRDNSKNTVYLQMNSLRAEDTAVYYCATSGSSVLYFKFWGQGTLVTVSSGGGGSGGGGSDIQMTQSPSSLSASVGDRVTITCQSSQSVFSNNYLAWFQQKPGQSPKRLIYSASTLASGVPSRFSGSGSGTDFTLTISSLQPEDFATYYCLGSYACSSADCYVFGCGTKVTVLGEPEPEPEPEPEPEPDIQMTQSPSSLSASVGDRVTITCQSSESVYSNNQLSWYQQKPGQPPKLLIYDASDLASGVPSRFSGSGSGTDFTLTISSLQPEDFATYYCAGGFSSSSDTAFGGGTKLTVLG
chain 2: DIQMTQSPSSLSASVGDRVTITCQASENIYSFLAWYQQKPGKAPKLLIYSASKLAAGVPSRFSGSGSGTDFTLTISSLQPEDFATYYCQQTNRYSNPDIYNVFGTGTKVTVLGGGGGSGGGGSGGGGSGGGGSEVQLVESGGGLVQPGGSLRLSCAASGIDFNSNYYMCWVRQAPGKGLEWIGCIYVGSHVNTYYANWAKGRFTISRDNSKNTVYLQMNSLRAEDTAVYYCATSGSSVLYFKFWGQGTLVTVSSGGGGSGGGGSEVQLVESGGGLVQPGGSLRLSCAASGFSLSSNAMGWVRQAPGKGLEYIGIISVGGFTYYASWAKGRFTISRDNSKNTVYLQMNSLRAEDTATYFCARDRHGGDSSGAFYLWGQGTLVTVSSKPKPKPKPKPKPKPEVQLVESGGGLVQPGGSLRLSCAASGFSLSSYDMSWVRQAPGKCLAWIGASYASGPTYYASWAKGRFTISRDNSKNTVYLQMNSLRAEDTATYFCARGGWTGTSHSNIWGQGTLVTVSS
notes: Hetero-dimeric MATCH, anti-parallel, two anti-IL23R scFv modules on a CD3/HSA core; interchain disulfide in the anti-CD3 VL/VH interface; charged core linkers; also called MATCH-4 anti-TAA2xCD3xHSA; heterodimeric MATCH
B1 was tested, and the “EC50 of T-cell activation (NFAT reporter, with HSA), 5 h” value [1] was 266000 nM, the “EC50 of T-cell activation (NFAT reporter, with HSA), 30 h” value [1] was 102000 nM and the Kd [2] was 3.52 nM. The Kd (human serum albumin) was 0.141 nM, the Kd (cyno CD3) was 3.19 nM and the Kd (human IL-23 receptor ECD) was 0.0249 nM. The “NFAT assay EC50 (T-cell activation, 5 h)” value [3] was 0.19 nM.
